Measurements as given in patent US5719041.

Tests used:
[1] = molecular target: Single chain tissue plasminogen activator (human) (UniProt P00750)
[2] = molecular target: Human leukocyte elastase (human) (UniProt P08246)
[3] = molecular target: Human plasma kallikrein (human) (UniProt P03952)
[4] = molecular target: Human activated protein C (human) (UniProt P04070)
Human plasmin (human) = Human plasmin (human) (UniProt P00747)
Human thrombin (human) = Human thrombin (human) (UniProt P00734)
Human Factor XIa (human) = Human Factor XIa (human) (UniProt P03951)
Human Factor Xa (human) [5] = molecular target: Human Factor Xa (human) (UniProt P00742)
[6] = molecular target: Bovine chymotrypsin (bovine) (UniProt P00766)
[7] = molecular target: Tissue factor·Factor VIIa complex (human Factor VIIa with recombinant human TF1-243) (human) (UniProt P08709)
[8] = molecular target: Human Factor XIIa (human) (UniProt P00748)
Bovine trypsin (bovine) = Bovine trypsin (bovine) (UniProt P00760)
[9] = molecular target: Human plasma kallikrein (human) (UniProt P03952); remark: listed apart in the source
Human Factor Xa (human) [10] = molecular target: Human Factor Xa (human) (UniProt P00742); remark: listed apart in the source
[11] = molecular target: Human Factor XIIa (human) (UniProt P00748); remark: listed apart in the source
[12] = molecular target: T1, MeOSuc-Ala-Ala-Pro-Val-MCA
T1 sequence (peptide, N-terminal MeOSuc; C-terminal MCA): AAPV

Chain of Human leukocyte elastase (P08246 30-247 limits assumed): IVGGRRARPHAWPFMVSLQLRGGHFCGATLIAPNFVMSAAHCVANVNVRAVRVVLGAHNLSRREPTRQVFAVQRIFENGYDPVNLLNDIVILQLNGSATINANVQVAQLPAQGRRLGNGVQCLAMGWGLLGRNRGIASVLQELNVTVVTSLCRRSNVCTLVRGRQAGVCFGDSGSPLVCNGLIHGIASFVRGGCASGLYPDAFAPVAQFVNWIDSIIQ

Percent Activity of protease with 100 nM inhibitor [1] [%] | Percent Activity of protease with 100 nM inhibitor [2] [%] | Percent Activity of protease with 100 nM inhibitor [3] [%] | Percent Activity of protease with 100 nM inhibitor [4] [%] | Percent Activity of protease with 100 nM inhibitor (Human plasmin (human)) [%] | Percent Activity of protease with 100 nM inhibitor (Human thrombin (human)) [%] | Percent Activity of protease with 100 nM inhibitor (Human Factor XIa (human)) [%] | Percent Activity of protease with 100 nM inhibitor (Human Factor Xa (human) [5]) [%] | Percent Activity of protease with 100 nM inhibitor [6] [%] | Percent Activity of protease with 100 nM inhibitor [7] [%] | Percent Activity of protease with 100 nM inhibitor [8] [%] | Percent Activity of protease with 100 nM inhibitor (Bovine trypsin (bovine)) [%] | concentration giving 10-fold prolongation of clotting time, APTT assay in normal human plasma [9] [µM] | concentration giving 10-fold prolongation of clotting time, PT assay in normal human plasma (Human Factor Xa (human) [10]) [µM] | concentration giving 10-fold prolongation of clotting time, APTT assay in normal human plasma [11] [µM] | Km of the substrate with HLE [12] [µM] | Substance
100 | 0 | 0 | 99 | 100 | 98 | 79 | 0 | 0 | 99 | 0 | 0 | 0.3 | 2 | 0.3 | – | Ecotin (recombinant wild type, E. coli periplasmic protein, 142 amino acid residues) (from UniProt P23827)
– | – | – | – | – | – | – | – | – | – | – | – | – | – | – | 150 | Human leukocyte elastase (from UniProt P08246) (enzyme)
100 | 88 | 1 | 50 | 10 | 4 | 5 | 1 | 0 | 87 | 1 | 0 | – | – | – | – | Ecotin M84R mutant (from UniProt P23827)
100 | 85 | 2 | 65 | 9 | 16 | 12 | 2 | 1 | 92 | 0 | 0 | – | – | – | – | Ecotin M84K mutant (from UniProt P23827)
